From patent publication US6635421 (CHILDREN S MEDICAL CENTER, dated 2003) come the findings set out here.

The target of experiment [1] is T1, Human VEGF165R/NP-1 (VEGF165 receptor / neuropilin-1) (human, UniProt O14786 22-923).
T1 construct: 923 amino acid open reading frame; also called clone A2
The experiment in a line: Scatchard analysis of 125I-VEGF165 binding to independently generated PAE/NP-1 clones.

Experiment [2] addresses T1, Human VEGF165R/NP-1 (VEGF165 receptor / …). The experiment in a line: Scatchard analysis (LIGAND program) of 125I-VEGF165 binding to PAE/NP-1 cells.
The target is the same in experiment [3]. Briefly: cell-based or functional assay.
Experiment [4] addresses T2, Human NP-2 (neuropilin-2) (human, UniProt O60462 21-931).
T2 sequence: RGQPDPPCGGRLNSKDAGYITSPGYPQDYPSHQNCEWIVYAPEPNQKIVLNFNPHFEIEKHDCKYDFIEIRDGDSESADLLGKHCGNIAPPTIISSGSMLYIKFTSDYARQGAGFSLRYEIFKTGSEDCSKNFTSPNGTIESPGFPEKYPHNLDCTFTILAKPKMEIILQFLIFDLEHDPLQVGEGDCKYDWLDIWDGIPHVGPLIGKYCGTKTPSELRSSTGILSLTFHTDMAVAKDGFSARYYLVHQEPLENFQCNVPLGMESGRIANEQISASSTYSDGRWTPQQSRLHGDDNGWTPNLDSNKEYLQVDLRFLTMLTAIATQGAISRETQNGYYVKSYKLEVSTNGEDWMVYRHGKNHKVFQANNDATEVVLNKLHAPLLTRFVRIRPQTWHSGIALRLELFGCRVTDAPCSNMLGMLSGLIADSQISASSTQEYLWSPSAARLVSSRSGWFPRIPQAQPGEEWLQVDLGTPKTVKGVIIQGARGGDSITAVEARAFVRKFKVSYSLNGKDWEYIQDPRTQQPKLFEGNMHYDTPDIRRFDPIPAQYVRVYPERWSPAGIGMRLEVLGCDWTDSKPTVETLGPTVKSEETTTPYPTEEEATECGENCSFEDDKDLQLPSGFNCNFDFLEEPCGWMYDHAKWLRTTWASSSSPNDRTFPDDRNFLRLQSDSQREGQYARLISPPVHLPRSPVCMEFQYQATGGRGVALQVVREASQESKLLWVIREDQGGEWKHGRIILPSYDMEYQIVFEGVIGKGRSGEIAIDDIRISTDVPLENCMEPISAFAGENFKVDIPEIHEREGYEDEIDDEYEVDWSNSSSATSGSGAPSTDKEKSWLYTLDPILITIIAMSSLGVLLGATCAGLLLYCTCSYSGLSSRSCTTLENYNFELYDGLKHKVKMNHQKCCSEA
The experiment in a line: expression cloning: COS-7 cells transfected with single clones screened for 125I-VEGF165 binding (seven positive clones, one of them NP-2).
Procedure: The E. coli were sub-divided into 50 separate pools and plated onto 50 LB ampicillin dishes, with each pool representing approximately 100 clones. […] The seven positive plasmid clones were amplified and their DNA was analyzed by restriction enzyme digestion. […] One clone from each group was submitted for automated DNA sequencing.

For experiment [5], the target named is T1, Human VEGF165R/NP-1 (VEGF165 receptor / …). The experiment in a line: cross-linking of 125I-VEGF121 to PAE/NP-1 cells, SDS-PAGE, autoradiography. The procedure:
The binding was carried out in the presence of 1 μg/ml heparin. […] The cells were lysed and proteins were resolved by 6% SDS-PAGE. The polyacrylamide gel was dried and exposed to X-ray film.

As usually defined, the Kd is a measure of binding affinity in units of concentration. A low value points to tighter binding.

B1: Human recombinant VEGF165 (ligand, UniProt P15692-4 27-191, looked up)
chain: APMAEGGGQNHHEVVKFMDVYQRSYCHPIETLVDIFQEYPDEIEYIFKPSCVPLMRCGGCCNDEGLECVPTEESNITMQIMRIKPHQGQHIGEMSFLQHNKCECRPKKDRARQENPCGPCSERRKHLFVQDPQTCKCSCKNTDSRCKARQLELNERTCRCDKPRR
modifications: radio-iodinated (125I, IODO-BEADS) in the binding and cross-linking experiments; unlabelled when coupled to Sepharose or used as competitor
notes: mature
For the molecule B1, the dissociation constant Kd in experiment [1] worked out at 300 pM; in experiment [2], 320 pM. In addition, in experiment [3], the “231 breast carcinoma cell motility (Boyden chamber motility assay)” value amounted to 2 fold. For the same molecule, the binding result in experiment [4] is “binds”.

B2: Human recombinant VEGF121 (ligand, UniProt P15692-9 27-147, looked up)
chain: APMAEGGGQNHHEVVKFMDVYQRSYCHPIETLVDIFQEYPDEIEYIFKPSCVPLMRCGGCCNDEGLECVPTEESNITMQIMRIKPHQGQHIGEMSFLQHNKCECRPKKDRARQEKCDKPRR
modifications: radio-iodinated (125I, IODO-BEADS)
notes: mature
As to B2, the binding result in experiment [5] is reported as “no binding (tested: 10 ng/ml)”.
